{"source": "the DeepSol protein solubility set", "data": [{"assay": "soluble on expression in E. coli; label from the status in PepcDB or PDB records", "values": [{"sequence": "MSLTSHLLKAEIHCHLEGAAPPALVVKQAEKYGIDTSGFLRDGQYVWSDFAEFIQCYDAVAQVFKSDEDYAVLTETYLTELAEANTIYSELIISPDHGDRIGLGADAYLAGVAEGIRIAKEKTGIETRIIVTGERHFGPERVIAAAEYAARIRHPLVTGFNMAGEERMGRVADYARAFDIARDAGLGLTIHAGEVCGPESVADALDLVKPSRIGHGVRAIEDAALISRLVETGTVLEVCPGSNIALSVYPDFASHPLKALSDAGVRVCISSDDPPFFFTSLAREYALAADAFGFNDAEINRMTRTALECAFVDEATRERLLARLGDAEGHHHHHH", "soluble on expression in E. coli": "soluble"}, {"sequence": "MSLTSQPREQFLLISALGPNPMELTTLLCRACVESRCAVVSSRLTRHGEFSALVLQISGSWDALARLEGSLPALTKRGDITLSMTRSNAHVTRAQALPYVAYVSAVYRPDILNELCQFFIDHNIELENLTCDTYQAPHTNTTMLNATITVTLPAGTQISWLRDQFLDFADALNLDALIEPWREGGSHHHHHH", "soluble on expression in E. coli": "soluble"}, {"sequence": "MSLTTNPVKHTDEHIGALYFSDLPGISNLTCTANYIGGKFWTTAHHCVEGRSRFVGFIEQSDGQYAGIEHVYTKSSDYDIALIKVGSGIDAEQFSLTRSRPAVGKMLEVVGFAVVNPFSSRATMEVTNSNTVANYPMSNLYYKDVFSAKPAGSFPYVISGGDSGAAVWSGETMYGIASGSNGSTKNLAANVGPHVSWIEQTMQNNSNSSPYEILQAFRGGLATSYPKYNQIRDLVDSSEGHHHHHH", "soluble on expression in E. coli": "not soluble"}, {"sequence": "MSLTTNRTRKAGADSEISDLLKTQSELHGRIAAMAETLGTRQTEMSQTLNQRLDGMSQRLGETLTEQTRSTHENLSRLQERLAVIDAAQGNIQDLAKDVVGLQAILSNKQTRGAFGQARMETLIADALPAGAFQLQPTLSNGYRPDCIIKMPNNAPALVIDAKFPLEAWNAIKADETPETKRAAVQQFRRDMEVHIRDVAEKYLIRGETQDTAFIFVPSESIFADIHQHFEYLVQRAHRARVVIVSPSLLMLSVQVIQSVLKDQRMREQAHLIQGEVALLMDDVRRLDDRTRKLQAHFGLAQKDVDMMLISSDKVLARGQKIEGLDFSPTEKEASHGEIEQTRRFAENRAGAAKLRVVDDEEGHHHHHH", "soluble on expression in E. coli": "soluble"}, {"sequence": "MSLTTSAHKHPYKIVASDLDGTLLAPNHQLSEFSKQTLKQLHDKGFTFIFATGRHHIDVAGIREIAGIPAYMITSNGARVHDQNDQLMYSKNVPQDLVQAIIDVVKHDKQLFVHLYRNDEWMLNKEDEILRDFHEDSGFTYRVFDVNNAPTDGIAKIFFTQEDQDHEHLVQYETLLNQRFGDKLNVAFSTPWCLEVMCAGVSKGDALQAVAESLHLGLENCIAFGDGMNDVEMLSMAGKGLVMGTAHEKVFNALPDNEVIGSNADDAVAHYLHQHLFEGGSHHHHHH", "soluble on expression in E. coli": "soluble"}, {"sequence": "MSLTVHATPEPAAHQGVALGSSFYAAMRILPRPQREAMFQVYSFCRFVDDIADSDRPREQRVAELQQWRDDIAALYRGAPPPRLADYQESLRTFGLKREDFEAIIDGMEMDVDADIRAPDEATLDLYCDRVASAVGRLSVRIFGLPEADGIELSHHLGRALQLTNILRDIDEDAGIGRLYLPSELLHKVGITATDPRVVAADSALPSVCAPLVERALAHFAAADKVMNRNPRRVVKAPRIMGKYYYSILQLLIARGFAAPRAPVKLGKASKIAILLQYAIVEGHHHHHH", "soluble on expression in E. coli": "soluble"}, {"sequence": "MSLTVWKTLEKTNHSQSEILSQLIEESDAIVVGIGAGMSAADGFTYIGPRFEEAFPDFIAKYQLLDMLQASLYDFEDWEEYWAFQSRFVALNYLDQPVGQAYLDLKDILAKKEYHIITTNADNAFAVADYNLEKVFHIQGEYGLWQCSQHCHQQTYRNDQAIRQMIAQQKDMKIPSNLIPKCPKCDQPFEINKRNEEKGMVEDADFHAQRQRYENFLSQHQNDKVLYLEIGVGHTTPQFIKHPFWRFVSLNENSLFVTLNHKHYRIPQKIRSRSVQLTQHIAELIAEAKKEIIGEGHHHHHH", "soluble on expression in E. coli": "soluble"}, {"sequence": "MSLTWFDLVTPKSVMFFKPFIEELKRRDREVLVTAREGEGYSEVVELLNLYKIPFFNRGGFGGAKLCDKLKASIHRQLELMEFIEQHSIKRLVCLCSVDANRVAFGLGIPIVNFYDIPLSDYKTDFRRALPQARLTLPLSNKAFRPFMVPEEIFFRFGLEHDQIFEYGFLDVVAWLRDFQPSREFYEKVLKDYGLDTSLPTIVVREEEYKASYVMKKYPILYEGLKVLKERLRANILVIPRYEPEAVAELLPFAKVLKEKIVIQHILAYCDLFIGGGGTLNSEACFFGTPTISTRSFVSHYDKFLMDLALMDKVDSIEELIIKAERIIGNRNGYAKQIFDRMEFDVGSMVDEILKEKEGAEGHHHHHH", "soluble on expression in E. coli": "soluble"}, {"sequence": "MSLVIVAIGCTFAAIPAYRIFCEQTSFGGLTQVAKDFDKIANMKKCEDRLIRVQFNSDVPSSMRWEFKPQQHEIYVHPGETALAFYTARNPTDKPIIGISSYNLTPFQAAYYFNKIQCFCFEEQILNPGEQVDLPVFFYIDPDYVNDPALEYLDSILLSYTFFEAKSGLKLPDPFDPKNRPSIAPSPDKVPEATK", "soluble on expression in E. coli": "not soluble"}, {"sequence": "MSLVIYMIGGSPCSGKSTIASLLARQYQLLHIKLDDLVDEMMSQASADSQPICLLRQDRNPEQIWMRNPKEMADEEWRFYEEIFPYVKSYLIKKDRPLLVEGAGLLPHLVKELEWPASSYLCLTPTADFQKKHYRQREWVSYVLEGTTNPEQAFENWMQRDILFAQMVRKEAMRLGYSSLMTDGSQSEKQTAEEIARLLKLYNINEIDIKGENEGHHHHHH", "soluble on expression in E. coli": "soluble"}, {"sequence": "MSLVSYVEVIKNGETISSCFQPFQKNENYGTITSANEQITPVIFHNLIMDMVLPKVVPIKGNKVTKMSMNLIDGFDCFYSTDDHDPKTVYVCFTLVDMPKILPIRILSGLQEYESNATNELLSSHVGQILDSFHEELVEYRNQTLNSSGNGQSSNGNGQNTISDIGDATEDQIKDVIQIMNDNIDKFLERQERVSLLVDKTSQLNSSSNKFRRKAVNIKEIMWWQKVKNITLLTFTIILEGHHHHHH", "soluble on expression in E. coli": "soluble"}, {"sequence": "MSLVTKEREQIYILDGDIPFLAQRARLEANFTMEAKAHIQLFHQYFFNLPPDNDYIKWTVGKAMYMADGTALKQKQALDENGFYSDIISSSAVCTIMCDSIQFDEHERKFTYYGTQLIKRRTKDLKRSMITTGYIESVPRTRNNPHGLLITNWRTLENKDLDYEGHHHHHH", "soluble on expression in E. coli": "soluble"}, {"sequence": "MSLYELTEDFKLRKITKYELDGIDEREDLLVIPPSSKAGPCGNACLFCYLLQNPPEMIYKVPRHDTLNDPDLENRIRYARKHYDLWIRVTDTSGNIKFDENRIKSLYDAGLDEIQISVHTTKKDVRARLMRNRQAGKLIDLLPLVAKHFRTIADIILTPGFNVEDIGEIIEDLDSMGVHEVRLFPVGVTRYNKFGVRPLTREELSYVKGIALEKDKELAIKVVIPPIFLALLGEFTTGLEPFDIEPDFPTYIFTGELAYQEMKRLFPRVNVIMVKNEFFGGNIGSAGLLTGRDILREVEKLPEVDLGLIILPELMFYGDMTLDGWRRQELFSKILIEKGYIVETALEPTEIPRVIEKVTLEGHHHHHH", "soluble on expression in E. coli": "soluble"}, {"sequence": "MSLYTYIDLFAGPGGLCTGFKNAGFKPLIAVEMSDNTVKTYARNHEAEVYSLQELLENKGRLEEILNINTDNTCLIHGDIRLVDNDIIVEILQKKFKTNSVDVVAGGPPCESFSLAGKRIDGDERDDLFKNMLRIASISNSKFIFFENVPGLLTKKSNNIKVFDVIVEEFDNYGYNLASTDKNIIKCLAADYGVPQNRERVFLIGINKMYGENPYIYPEKTHGEGRKFEYISVSDALRYLPELNSGEGADIQQITYNFEEDFRKGKISEAVYNYLKFIAGKEGYIPPHIKESIDDGLIEIHKAVKHREKMINRMSYIKQGEGMKKAAERLINEGKEDIVRAYFPNKLYAARNRRLKANEPSFTVTSHCLDEMVHPYNNRGLTPREAARLQSFPDWYVFEGEYVKFHSDPQQDKYEQCGDAIPVLLVKALAEQLKIALNIVSERTSINEGHHHHHH", "soluble on expression in E. coli": "not soluble"}, {"sequence": "MSLYYVTEDDVDKNFDMKAAINAVREAFEEYGKGRAYSSTRVRTFSQDGVLNTMPAAMEKYHISGLKSYYATRNGAKFVVVLFDTAADELLAIIEANRLGQIRTGAVTAYATSILHKNVEIFAIIGSGFQAETQLEGMLKVANPTEIRVYSRNQEHARNFSERSSKKFGVSIRAVESAEAALIGADTITTITNSNVPIVYRKYLGDEYHINLAGSNYINRREAESAVLSDANIVVTEHLEQSLIESVEISEYVKLGGKPIELKDVAVDPTRYSKFHRTVFKSMGIGLEDIISGYAVLKNMGIIEGHHHHHH", "soluble on expression in E. coli": "soluble"}, {"sequence": "MSMLPTFGFTQEQVACVCEVLQQGGNIERLGRFLWSLPACEHLHKNESVLKAKAVVAFHRGNFRELYKILESHQFSPHNHAKLQQLWLKAHYIEAEKLRGRPLGAVGKYRVRRKFPLPRSIWDGEETSYCFKEKSRSVLREWYAHNPYPSPREKRELTEATGLTTTQVSNWFKNRRQRDRAAEAKERENNENSNSNSHNPLNGSGKSVLGSSEDEKTPSGTPDHSSSSPALLLSPPPPGLPSLHSLGHPPGPSAVPVPVPGGGGADPLQHHHGLQDSILNPMSANLVDLGS", "soluble on expression in E. coli": "soluble"}, {"sequence": "MSMLQRPGYPNLSVKLFDSYDAWSNNRFVELAATITTLTMRDSLYGRNEGMLQFYDSKNIHTKMDGNEIIQISVANANDINNVKTRIYGCKHFSVSVDSKGDNIIAIELGTIHSIENLKFGRPFFPDAGESIKEMLGVIYQDRTLLTPAINAINAYVPDIPWTSTFENYLSYVREVALAVGSDKFVFVWQDIMGVNMMDYDMMINQEPYPMIVGEPSLIGQFIQELKYPLAYDFVWLTKSNPHKRDPMKNATIYAHSFLDSSIPMITTGKGENSIVVSRSGAYSEMTYRNGYEEAIRLQTMAQYDGYAKCSTIGNFNLTPGVKIIFNDSKNQFKTEFYVDEVIHELSNNNSVTHLYMFTNATKLETIDPVKVKNEFKSDTTTEESSSSNKQ", "soluble on expression in E. coli": "soluble"}, {"sequence": "MSMSSMSSPSSAVCSPDHFSPSDHLCYVQCNFCQTILAVNVPYTSLFKTVTVRCGCCTNLLSVNMRSYVLPASNQLQLQLGPHSYFNPQDILEELRDAPSNMNMMMMNQHPTMNDIPSFMDLHQQHEIPKAPPVNRPPEKRQRVPSAYNRFIKEEIQRIKAGNPDISHREAFSAAAKNWAHFPHIHFGLVPDNQPVKKTNMPQQEGEDNMVMKEGFYAPAAANVGVTPY", "soluble on expression in E. coli": "soluble"}, {"sequence": "MSNAMPWVRFYLYDWISGTNGMTSEQRGVYITLLVCMYEKKEPLKTDFETLARVCHCSQKKFAAIVEYLMRNDKLIEIDGRLWNLDVEEELNNLSEELDNFTFNNNEEKEVKYVN", "soluble on expression in E. coli": "not soluble"}, {"sequence": "MSNANQKITTFLMFEGKAEEAMNFYTSLFDQSEIVSISRYDENGPGKEGTVIHATFTLNGQEFMCIDSYVNHNFTFTPAMSLYVTCETEEEIDTVFHKLAQDGAILMPLGSYPFSKKFGWLNDKYGVSWQLTLAE", "soluble on expression in E. coli": "soluble"}, {"sequence": "MSNFISPVYEIKSIPIEKISPNDYNPNSVAPPEMKLLYDSIKSDGYTMPIVCYYDKEEDRYSIVDGFHRYRIMLDYSDIYERESGRLPVSVIDKSLDYRMASTIRHNRARGSHD", "soluble on expression in E. coli": "not soluble"}, {"sequence": "MSNFLDLQKQRRSIYALGKTVDLSKAELVALIQNAIKQAPSAFNSQTSRALVLFGQDSQDFWNKIAYSELEKVTPAEAFAGTKAKLESFAAGVGTILLFEDQAVVRNLEENFPLYAENFQPWSEQAHGIALYAIWLALAEQNIGMSVQHYNPLVDAQVAEKYDLPTNWKMRAQIPFGSIEAPAGEKEFMADQERFKVFGDLEHHHHHH", "soluble on expression in E. coli": "soluble"}]}]}
